# Literature values as cited in patent US10562850B2, “Human plasma kallikrein inhibitors” (priority 2015, dated 2020).
# How the values were obtained:
# [1] = test system: sepsis patients; details: cited from earlier work
# [2] = test system: mouse model of middle cerebral artery occlusion (MCAO); details: cited from earlier work
molecule,measurement,setting,value
"C1-inhibitor: a physiological inhibitor (C1-inhibitor) (protein, UniProt P05155 23-500, looked up) Plasma protease C1 inhibitor: NPNATSSSSQDPESLQDRGEGKVATTVISKMLFVEPILEVSSLPTTNSTTNSATKITANTTDEPTTQPTTEPTTQPTIQPTQPTTQLPTDSPTQPTTGSFCPGPVTLCSDLESHSTEAVLGDALVDFSLKLYHAFSAMKKVETNMAFSPFSIASLLTQVLLGAGENTKTNLESILSYPKDFTCVHQALKGFTTKGVTSVSQIFHSPDLAIRDTFVNASRTLYSSSPRVLSNNSDANLELINTWVAKNTNNKISRLLDSLPSDTRLVLLNAIYLSAKWKTTFDPKKTRMEPFHFKNSVIKVPMMNSKKYPVAHFIDQTLKAKVGQLQLSHNLSLVILVPQNLKHRLEDMEQALSPSVFKAIMEKLEMSKFQPTLLTLPRIKVTTSQDMLSIMEKLEFFDFSYDLNLCGLTEDPDLQVSAMQHQTVLELTETGVEAAAASAISVARTLLVFEVQQPFLFVLWDQQHKFPVFMGRVYDPRA",clinical outcome in sepsis patients,[1],Clinical improvement was observed
same,infarct size,[2],reduced infarct size
